2 molecules from US6673587B1, “Histone deacetylase, and uses therefor” (The Salk Institute for Biological Studies, priority 2000, dated 2004) can be followed below.

This test addresses T1, GAL DBD-SMRT (RD III+IV), pGBT9-hSMRT (1060-1831) (human, UniProt P04386 1-147; Q9Y618 1060-1831).
T1 construct: domain: GAL DBD;range 1060-1831; Bait of the yeast two-hybrid screen and assays in strain Y190; also called SMRT repression domains III and IV; SMRT RD III and IV
As to the kind of experiment: yeast two-hybrid, growth on -Trp-Leu-His+40 mM 3-AT plates. As for the experimental part:
(Verdel and Khochbin, 1999, supra)). A series of AD-HDAC constructs were generated for interaction assays in yeast. Transformants harboring both plasmids were picked and patched onto nutrient selection plates. Only cells that contain plasmids carrying an interacting partner are able to activate reporter gene HIS3 and therefore are viable in the selection plate -Trp-Leu-His+40 mM 3-AT. […] After three days, two isolated colonies were picked, resuspended in water, and […] were dropped on both -Trp-Leu and -Trp-Leu-His+40 mM 3-AT plates. Pictures were taken after three days.

B1: AD-HDAC1 (deacetylase domain of HDAC1, GAL AD fusion) (enzyme, UniProt Q13547 9-321, looked up, not shown: large carriers)
chain: RKVCYYYDGDVGNYYYGQGHPMKPHRIRMTHNLLLNYGLYRKMEIYRPHKANAEEMTKYHSDDYIKFLRSIRPDNMSEYSKQMQRFNVGEDCPVFDGLFEFCQLSTGGSVASAVKLNKQQTDIAVNWAGGLHHAKKSEASGFCYVNDIVLAILELLKYHQRVLYIDIDIHHGDGVEEAFYTTDRVMTVSFHKYGEYFPGTGDLRDIGAGKGKYYAVNYPLRDGIDDESYEAIFKPVMSKVMEMFQPSAVVLQCGSDSLSGDRLGCFNLTIKGHAKCVEFVKSFNLPMLMLGGGGYTIRNVARCWTYETAVALD
notes: domain: deacetylase domain
Take B1: the binding result is recorded as “no binding”.

B2: AD-HDAC3 (deacetylase domain of HDAC3, GAL AD fusion) (enzyme, UniProt O15379 3-316, looked up, not shown: large carriers)
chain: KTVAYFYDPDVGNFHYGAGHPMKPHRLALTHSLVLHYGLYKKMIVFKPYQASQHDMCRFHSEDYIDFLQRVSPTNMQGFTKSLNAFNVGDDCPVFPGLFEFCSRYTGASLQGATQLNNKICDIAINWAGGLHHAKKFEASGFCYVNDIVIGILELLKYHPRVLYIDIDIHHGDGVQEAFYLTDRVMTVSFHKYGNYFFPGTGDMYEVGAESGRYYCLNVPLRDGIDDQSYKHLFQPVINQVVDFYQPTCIVLQCGADSLGCDRLGCFNLSIRGHGECVEYVKSFNIPLLVLGGGGYTVRNVARCWTYETSLLVE
notes: domain: deacetylase domain
On to B2, for which the binding result is “no binding”.
